Assay results taken from patent EP4803541A1 (Changchun Genescience Pharmaceutical Co., Ltd., dated 2026).

Tests used:
rhGH protein = rhGH protein (UniProt: P01241) (human) (UniProt P01241); assay: ELISA on coated rhGH, anti-6*His HRP; sample after 0.5M NaOH 24h, against WT; set-up: unit not given beside the values
GH (GH stock solution) [1] = target: GH (GH stock solution) (UniProt P01241); assay: loss of dynamic binding capacity of the conjugated medium for GH after 0.1M NaOH 32h
GH (GH stock solution) [2] = target: GH (GH stock solution) (UniProt P01241); assay: loss of dynamic binding capacity of the conjugated medium for GH after 0.5M NaOH 24h
GH (GH stock solution) [3] = target: GH (GH stock solution) (UniProt P01241); assay: affinity chromatography, VHH-conjugated medium loaded with GH stock solution; medium in 0.1M NaOH 0h
GH (GH stock solution) [4] = target: GH (GH stock solution) (UniProt P01241); assay: affinity chromatography, VHH-conjugated medium loaded with GH stock solution; medium in 0.5M NaOH 0h
GH (GH stock solution) [5] = target: GH (GH stock solution) (UniProt P01241); assay: affinity chromatography, VHH-conjugated medium loaded with GH stock solution; medium in 0.5M NaOH 6h
GH (GH stock solution) [6] = target: GH (GH stock solution) (UniProt P01241); assay: affinity chromatography, VHH-conjugated medium loaded with GH stock solution; medium in 0.1M NaOH 24h
GH (GH stock solution) [7] = target: GH (GH stock solution) (UniProt P01241); assay: affinity chromatography, VHH-conjugated medium loaded with GH stock solution; medium in 0.1M NaOH 32h
GH (GH stock solution) [8] = target: GH (GH stock solution) (UniProt P01241); assay: affinity chromatography, VHH-conjugated medium loaded with GH stock solution; medium in 0.5M NaOH 24h
[9] = target: T1, rhGH protein (UniProt: P01241) (human, UniProt P01241 27-217); assay: ELISA on coated rhGH, anti-6*His HRP; sample after 0.3 M NaOH 24h
T1 construct: Coated at 5 ug/ml in the ELISA; also called human growth hormone

[10] = target: T1, rhGH protein (UniProt: P01241); assay: ELISA on coated rhGH; sample after 0.5M NaOH 24h

Chain of GH (GH stock solution) (P01241 27-217 limits assumed): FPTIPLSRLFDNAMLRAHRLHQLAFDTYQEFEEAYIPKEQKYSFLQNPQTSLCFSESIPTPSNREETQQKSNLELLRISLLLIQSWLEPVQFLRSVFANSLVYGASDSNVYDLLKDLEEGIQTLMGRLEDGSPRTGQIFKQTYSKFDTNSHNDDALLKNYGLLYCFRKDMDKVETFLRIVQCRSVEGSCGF
T1 sequence (P01241 27-217 limits assumed, one chain of several): as the sequence (P01241 27-217 limits assumed) above
Chain of rhGH protein (UniProt: P01241) (human) (UniProt P01241) (P01241 27-217 limits assumed, one chain of several): as the sequence (P01241 27-217 limits assumed) above

B1: M20 (First round) (VHH)
VHH: QVQLVESGGGLAQAGGSLRLSCAVSGMPEFARAMGWFRQAPGKERELVAAIEGIGATTYYADSVKGRFTISRDDAANTVLLQMNSLKPDDTAVYYCAAAFSVTIPTRARHWVDWGPGTLVTVSS
B1 was tested, and the EC50 against that of the WT after 0.5M alkali (% higher than WT) (rhGH protein) was 50, the DBC decay rate (GH (GH stock solution) [1]) was less than 6% and the residual DBC (a decrease of DBC) (GH (GH stock solution) [2]) was less than 49%. It also gave a dynamic binding capacity at 10% breakthrough (GH (GH stock solution) [3]) of 19.6, a dynamic binding capacity at 10% breakthrough (GH (GH stock solution) [4]) of 19.6 and a dynamic binding capacity at 10% breakthrough (GH (GH stock solution) [5]) of 14.3. The dynamic binding capacity at 10% breakthrough (GH (GH stock solution) [6]) was 18, the dynamic binding capacity at 10% breakthrough (GH (GH stock solution) [7]) was 16.9 and the dynamic binding capacity at 10% breakthrough (GH (GH stock solution) [8]) was 10.2.

B2: WT (with tag), unmodified GH single-domain antibody molecule (VHH)
VHH: QVQLVESGGGLAQAGGSLRLSCAVSGMPEFARAMGWFRQAPGKERELLAAIEGIGATTYYADSVKGRFTISRDDAANTVLLQMNSLKPDDTAVYYCAAAFSVTIPTRARHWVDWGPGTLVTVSS
B2 was tested, and the DBC decay rate (GH (GH stock solution) [1]) was 35%, the residual DBC (a decrease of DBC) (GH (GH stock solution) [2]) was 85% and the dynamic binding capacity at 10% breakthrough (GH (GH stock solution) [3]) was 22.3. The dynamic binding capacity at 10% breakthrough (GH (GH stock solution) [4]) was 22.3, the dynamic binding capacity at 10% breakthrough (GH (GH stock solution) [5]) was 5.78 and the dynamic binding capacity at 10% breakthrough (GH (GH stock solution) [6]) was 16.2. For the same binder, the dynamic binding capacity at 10% breakthrough (GH (GH stock solution) [7]) was 14.7 and the dynamic binding capacity at 10% breakthrough (GH (GH stock solution) [8]) was 3.39.

B3: M25 (First round) (VHH)
VHH: QVQLVESGGGLAQAGGSLRLSCAVSGMPEFARAMGWFRQAPGKERELLAAIEGIGATTYYADSVKGRFTISRDDAANTVLLQMNSLKPDDTAVYYCAAAFSVTIPTRARHWDDWGPGTLVTVSS
notes: tail DDDDK-SGGGGS-HHHHHH
B3: binds [9].

B4: M8 (First round) (VHH)
VHH: QVQLVESGGGLAQAGGSLRLSCAVSGMPEFARAMGWFRQAPGKERELLAAIEGIGATTYYADSVKGRFTISRDDAANTVLLQMNSLKPDDTAVYYCAAAFSVTIPTRARHWVYWGPGTLVTVSS
notes: tail DDDDK-SGGGGS-HHHHHH
B4: binds [9].

B5: M31 (First round) (VHH)
VHH: QVQLVESGGGLAQAGGSLRLSCAVSGMPEFARAMGWFRQAPGKERELLAAIEGIGATTYYADSVKGRFTISRDDAANTVLLQMNSLKPDDTAVYYCAAAFSVTIPTRAEHWVDWGPGTLVTVSS
notes: tail DDDDK-SGGGGS-HHHHHH
B5: binds [9].

B6: M74 (Second round) (VHH)
VHH: QVQLVESGGGLAQAGGSLRLSCAVSGMPEFARAMGWFRQAPGKERELLAAIEGIGDTTYYADSVKGRFTISRDDAANTVLLQMNSLKPDDTAVYYCAAAFSVTIPTRAEHWVDWGPGTLVTVSS
notes: Entry already carries A57D; G134R; R100eE); tail DDDDK-SGGRGS-HHHHHH
With B6 the binding result [10] was “binds”, the DBC decay rate (GH (GH stock solution) [1]) was less than 6% and the residual DBC (a decrease of DBC) (GH (GH stock solution) [2]) was less than 49%. The dynamic binding capacity at 10% breakthrough (GH (GH stock solution) [3]) was 15, the dynamic binding capacity at 10% breakthrough (GH (GH stock solution) [4]) was 14.7 and the dynamic binding capacity at 10% breakthrough (GH (GH stock solution) [5]) was 13.2. For the same binder, the dynamic binding capacity at 10% breakthrough (GH (GH stock solution) [6]) was 15.8, the dynamic binding capacity at 10% breakthrough (GH (GH stock solution) [7]) was 15.4 and the dynamic binding capacity at 10% breakthrough (GH (GH stock solution) [8]) was 8.24.

B7: M78 (Second round) (VHH)
VHH: QVQLVESGGGLAQAGGSLRLSCAVSGMPEFARAMGWFRQAPGKERELLAAIEGIGDTTYYADSVKGRFTISRDDAANTVLLQMNSLKPDDTAVYYCAAAFSVTIPTRARHWVYWGPGTLVTVSS
notes: Entry already carries A57D; G134R; D102Y); tail DDDDK-SGGRGS-HHHHHH
B7 was tested, and the binding result [10] was “binds”, the DBC decay rate (GH (GH stock solution) [1]) was less than 6% and the residual DBC (a decrease of DBC) (GH (GH stock solution) [2]) was less than 49%. For the same binder, the dynamic binding capacity at 10% breakthrough (GH (GH stock solution) [3]) was 16.3, the dynamic binding capacity at 10% breakthrough (GH (GH stock solution) [4]) was 16.3 and the dynamic binding capacity at 10% breakthrough (GH (GH stock solution) [5]) was 13.5. It also gave a dynamic binding capacity at 10% breakthrough (GH (GH stock solution) [6]) of 16.3, a dynamic binding capacity at 10% breakthrough (GH (GH stock solution) [7]) of 15.4 and a dynamic binding capacity at 10% breakthrough (GH (GH stock solution) [8]) of 9.06.

B8: M29 (First round) (VHH)
VHH: QVQLVESGGGLAQAGGSLRLSCAVSGMPEFARAMGWFRQAPGKERELLAAIEGIGAKTYYADSVKGRFTISRDDAANTVLLQMNSLKPDDTAVYYCAAAFSVTIPTRARHWVDWGPGTLVTVSS
notes: tail DDDDK-SGGGGS-HHHHHH
B8: binds [9].
